Columns and labels:
Histones = test: Luminex AtheNA Multi-Lyte ANA Test, 0.15 µg mab per test
centromere B protein = centromere B protein (UniProt P07199); test: as above
FMS peptide (T4; HIV-1) = test: SPR, FMS conjugate in DMPC liposomes
SS-A/Ro = test: Luminex AtheNA Multi-Lyte ANA Test, 0.15 µg mab per test
Mab 4E10 = test: ELISA; gp140 (19.25-1230 nM) mixed with 10 µg/ml 4E10 MAb, added to wells with 1.35 µg cardiolipin

Chain of FMS peptide (T4; HIV-1) (P03375 656-683): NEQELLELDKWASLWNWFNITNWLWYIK
Chain of UniProt P07199 (P07199 2-599): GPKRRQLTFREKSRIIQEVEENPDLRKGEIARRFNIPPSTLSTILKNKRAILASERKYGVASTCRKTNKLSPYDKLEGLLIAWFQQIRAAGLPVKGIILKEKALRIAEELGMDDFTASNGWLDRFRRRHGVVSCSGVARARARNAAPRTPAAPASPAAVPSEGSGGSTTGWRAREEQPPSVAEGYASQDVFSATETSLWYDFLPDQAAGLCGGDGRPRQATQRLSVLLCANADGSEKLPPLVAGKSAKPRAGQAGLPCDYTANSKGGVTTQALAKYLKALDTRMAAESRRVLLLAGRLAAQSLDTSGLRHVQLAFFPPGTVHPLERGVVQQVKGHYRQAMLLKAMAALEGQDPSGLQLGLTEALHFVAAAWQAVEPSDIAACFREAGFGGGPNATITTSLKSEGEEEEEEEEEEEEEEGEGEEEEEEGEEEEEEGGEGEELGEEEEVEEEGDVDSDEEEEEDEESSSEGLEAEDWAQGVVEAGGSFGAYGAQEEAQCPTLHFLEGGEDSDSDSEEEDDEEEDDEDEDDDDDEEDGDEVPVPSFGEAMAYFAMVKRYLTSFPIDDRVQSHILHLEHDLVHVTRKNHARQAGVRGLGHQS

Substance | relative units based on a standard curve (relative units) (Histones) | relative units based on a standard curve (relative units) (centromere B protein) | Kd (FMS peptide (T4; HIV-1)) [nM] | relative units based on a standard curve (relative units) (SS-A/Ro) | IC50 (Mab 4E10) [nM]
IgG1b12 (antibody) | 185 | 479 | – | – | –
Mab 2F5 (antibody) | 1010 | 1780 | 0.18 | 290 | –
Mab 4E10 (antibody) | – | – | 27 | 221 | –
soluble HIV-1 Env gp140 oligomers (CON-S) | – | – | – | – | 145

Source: patent US20140322262A1
